# According to article PMC9196870, “Crystal Structure of an Intramolecular Mesaconyl-Coenzyme A Transferase From the 3-Hydroxypropionic Acid Cycle of Roseiflexus castenholzii” (Frontiers in Microbiology, 2022):
# Target: the molecule itself
# Experiment: SEC; gel filtration, Superdex 200 10/300 GL, 25 mM Tris-Cl pH 8.0, 150 mM NaCl, 0.5 mL/min
protein,measurement,value
Mesaconyl-CoA C1-C4 CoA transferase (MCT) from Roseiflexus castenholzii (enzyme) MNGILSGMRIVEGSAFVAAPLGGMTLAQLGADVIRFDPIGGGLDYKRWPVTLDGKHSLFWAGLNKGKRSIAIDIRHPRGQELLTQLICAPGDEAGLFITNFPARGWLSYEALKAHRADLIMVNLLGRRDGGSEVDYTVNPQLGLPFMTGPFTSPEVVNHVLPAWDIVTGQMIALGLLAAERHRRRTGEGQLVKLALKDVGLAMIGHLGMIAEVMINDADRPKQGNYLYGAFGRDFETLDGKRVMVVGLTDLQWKALGKATGLTDAFNALGARLGLDMNDEGNRFRARREIAALLEPWFHARTFAEVRRVFEEHRVTWGPYRTVREAIAQDPDCSTENPMFTMVEQPGIGTYLMPASPLDFSRMPRLPAQRAPRLGEHTDEILLEVLGLSDGEVGKLHDEGIVAGPEEE,stoichiometry N,2
